Assay results taken from US20220403022A1 (Merck KGaA, published 2022).
Where a chain is given by its changes, count along the chain named.

Tests used:
Assay in all cases: SPR, antibody captured on anti-human Fc, TIGIT ECD injected
[1] = biological target: T1, human TIGIT ECD (wild-type, expressed in E. coli) (human, UniProt Q495A1 22-141)
T1 construct: also called huTIGIT; wild-type TIGIT
T1 sequence: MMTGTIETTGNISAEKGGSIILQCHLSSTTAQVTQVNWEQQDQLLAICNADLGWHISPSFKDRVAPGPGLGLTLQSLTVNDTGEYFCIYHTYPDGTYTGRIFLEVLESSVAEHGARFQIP

human TIGIT ECD T51A = biological target: T2, human TIGIT ECD T51A (human, UniProt Q495A1 22-141)
T2 construct: point mutant expressed in E. coli
T2 chain: T1 sequence with T30A

human TIGIT ECD Q53A = biological target: T3, human TIGIT ECD Q53A (human, UniProt Q495A1 22-141)
T3 construct: point mutant expressed in E. coli
T3 chain: T1 sequence with Q32A

human TIGIT ECD T55A = biological target: T4, human TIGIT ECD T55A (human, UniProt Q495A1 22-141)
T4 construct: point mutant expressed in E. coli
T4 chain: T1 sequence with T34A

human TIGIT ECD Q56A = biological target: T5, human TIGIT ECD Q56A (human, UniProt Q495A1 22-141)
T5 construct: point mutant expressed in E. coli
T5 chain: T1 sequence with Q35A

human TIGIT ECD N70A = biological target: T6, human TIGIT ECD N70A (human, UniProt Q495A1 22-141)
T6 construct: point mutant expressed in E. coli
T6 chain: T1 sequence with N49A

human TIGIT ECD A71G = biological target: T7, human TIGIT ECD A71G (human, UniProt Q495A1 22-141)
T7 construct: point mutant expressed in E. coli
T7 chain: T1 sequence with A50G

human TIGIT ECD H111A = biological target: T8, human TIGIT ECD H111A (human, UniProt Q495A1 22-141)
T8 construct: point mutant expressed in E. coli
T8 chain: T1 sequence with H90A

human TIGIT ECD Y113A = biological target: T9, human TIGIT ECD Y113A (human, UniProt Q495A1 22-141)
T9 construct: point mutant expressed in E. coli
T9 chain: T1 sequence with Y92A

human TIGIT ECD P114G = biological target: T10, human TIGIT ECD P114G (human, UniProt Q495A1 22-141)
T10 construct: point mutant expressed in E. coli
T10 chain: T1 sequence with P93G

human TIGIT ECD D115A = biological target: T11, human TIGIT ECD D115A (human, UniProt Q495A1 22-141)
T11 construct: point mutant expressed in E. coli
T11 chain: T1 sequence with D94A

human TIGIT ECD T117A = biological target: T12, human TIGIT ECD T117A (human, UniProt Q495A1 22-141)
T12 construct: point mutant expressed in E. coli
T12 chain: T1 sequence with T96A

Kd [1]: 2.08 nM | ΔΔGmut [1]: 0 kcal/mol | Kd (human TIGIT ECD T51A): 1.77 nM | ΔΔGmut (human TIGIT ECD T51A): -0.1 kcal/mol | ΔΔGmut (human TIGIT ECD Q53A): > 3 kcal/mol | ΔΔGmut (human TIGIT ECD T55A): > 3 kcal/mol | Kd (human TIGIT ECD Q56A): 33.9 nM | ΔΔGmut (human TIGIT ECD Q56A): 1.65 kcal/mol | Kd (human TIGIT ECD N70A): 31.5 nM | ΔΔGmut (human TIGIT ECD N70A): 1.61 kcal/mol | Kd (human TIGIT ECD A71G): 7.02 nM | ΔΔGmut (human TIGIT ECD A71G): 0.72 kcal/mol | Kd (human TIGIT ECD H111A): 30.9 nM | ΔΔGmut (human TIGIT ECD H111A): 1.6 kcal/mol | ΔΔGmut (human TIGIT ECD Y113A): > 3 kcal/mol | ΔΔGmut (human TIGIT ECD P114G): > 3 kcal/mol | Kd (human TIGIT ECD D115A): 14.4 nM | ΔΔGmut (human TIGIT ECD D115A): 1.14 kcal/mol | Kd (human TIGIT ECD T117A): 1.58 nM | ΔΔGmut (human TIGIT ECD T117A): -0.17 kcal/mol
B1: 3963H03-12 (antibody, human IgG1, kappa, V domains shown)
VH: QVQLVQSGSELKKPGASVKVSCKASGYTFTSYPMNWVRQAPGQGLEWMGWINTNTGNPTYAQGFTGRFVFSLDTSVSTAYLQISSLKAEDTAVYYCARVGGYSVDEYAFDVWGQGTLVTVSS
VL: DIQLTQSPSFLSASVGDRVTITCRASQGISSYLAWYQQKPGKAPKLLIYAASTLQSGVPSRFSGSGSGTEFTLTISSLQPEDFATYYCQQLSSYPTFGGGTKVEIKR
notes: also called anti-TIGIT H03-12; 39631H03-12
